Assay results: patent publication US20220213181A1 (Novartis, published 2022)
“And” between values parts separate entries of the source, which are not always exact repeats. Equal values may be shown once.

Legend:
[1] = biological target: T1, Cynomolgus monkey ANGPTL4(26-161)-FLAG-His6-Avi (cynomolgus monkey, biotin on the C-terminal Avi tag (BirA) where the protein is immobilised); experiment: Octet (ForteBio) kinetics, biotinylated antigen on streptavidin sensor, IgG in solution
T1 construct: also called Cyno ANGPTL4 (26-161)
T1 chain: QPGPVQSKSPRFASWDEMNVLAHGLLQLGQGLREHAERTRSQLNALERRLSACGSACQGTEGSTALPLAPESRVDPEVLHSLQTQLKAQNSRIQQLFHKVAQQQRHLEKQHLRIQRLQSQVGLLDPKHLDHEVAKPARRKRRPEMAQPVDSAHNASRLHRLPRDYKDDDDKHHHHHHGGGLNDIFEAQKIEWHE

[2] = biological target: T2, Cynomolgus monkey ANGPTL4(26-406)-FLAG-His6-Avi (cynomolgus monkey, biotin on the C-terminal Avi tag (BirA) where the protein is immobilised); experiment: as above
T2 construct: also called Cyno ANGPTL4 (26-406)
T2 chain: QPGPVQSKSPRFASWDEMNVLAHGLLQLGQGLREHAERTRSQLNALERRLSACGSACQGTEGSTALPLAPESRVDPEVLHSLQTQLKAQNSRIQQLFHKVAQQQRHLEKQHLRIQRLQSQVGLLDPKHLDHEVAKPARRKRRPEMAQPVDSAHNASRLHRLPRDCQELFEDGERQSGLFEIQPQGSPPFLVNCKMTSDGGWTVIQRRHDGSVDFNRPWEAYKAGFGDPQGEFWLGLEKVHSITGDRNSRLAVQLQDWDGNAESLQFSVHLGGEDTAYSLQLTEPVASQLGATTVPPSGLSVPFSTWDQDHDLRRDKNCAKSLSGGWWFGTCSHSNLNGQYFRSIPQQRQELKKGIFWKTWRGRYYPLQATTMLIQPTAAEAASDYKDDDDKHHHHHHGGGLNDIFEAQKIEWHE

[3] = biological target: T3, Mouse ANGPTL4(26-410)-FLAG-His6-Avi (mouse, UniProt Q9Z1P8 24-410, biotin on the C-terminal Avi tag (BirA) where the protein is immobilised); experiment: Octet (ForteBio) kinetics; average KD of the runs; Octet kinetics; average KD of the two mouse runs
T3 sequence: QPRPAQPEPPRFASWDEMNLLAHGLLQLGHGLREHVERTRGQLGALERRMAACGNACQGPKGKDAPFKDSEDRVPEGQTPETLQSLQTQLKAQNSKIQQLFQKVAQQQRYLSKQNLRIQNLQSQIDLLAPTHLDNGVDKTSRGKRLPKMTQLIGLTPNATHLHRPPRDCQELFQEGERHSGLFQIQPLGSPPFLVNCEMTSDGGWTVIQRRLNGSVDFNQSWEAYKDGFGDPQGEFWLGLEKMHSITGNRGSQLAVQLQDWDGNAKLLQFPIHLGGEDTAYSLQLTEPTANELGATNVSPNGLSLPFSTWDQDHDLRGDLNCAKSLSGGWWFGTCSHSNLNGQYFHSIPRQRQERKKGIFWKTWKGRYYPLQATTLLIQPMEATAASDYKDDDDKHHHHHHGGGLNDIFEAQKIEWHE

[4] = biological target: T4, Human ANGPTL4(26-406)-FLAG-His6-Avi (human, UniProt Q9BY76 24-406, biotin on the C-terminal Avi tag (BirA) where the protein is immobilised); experiment: Octet (ForteBio) kinetics, biotinylated antigen on streptavidin sensor, IgG in solution; slower than the limit of detection
T4 construct: the text calls it 20 amino acids), then QP, ANGPTL4 26-406 and FLAG-His6-Avi; the signal peptide is left out here; also called full length human ANGPTL4; hANGPTL4
T4 sequence: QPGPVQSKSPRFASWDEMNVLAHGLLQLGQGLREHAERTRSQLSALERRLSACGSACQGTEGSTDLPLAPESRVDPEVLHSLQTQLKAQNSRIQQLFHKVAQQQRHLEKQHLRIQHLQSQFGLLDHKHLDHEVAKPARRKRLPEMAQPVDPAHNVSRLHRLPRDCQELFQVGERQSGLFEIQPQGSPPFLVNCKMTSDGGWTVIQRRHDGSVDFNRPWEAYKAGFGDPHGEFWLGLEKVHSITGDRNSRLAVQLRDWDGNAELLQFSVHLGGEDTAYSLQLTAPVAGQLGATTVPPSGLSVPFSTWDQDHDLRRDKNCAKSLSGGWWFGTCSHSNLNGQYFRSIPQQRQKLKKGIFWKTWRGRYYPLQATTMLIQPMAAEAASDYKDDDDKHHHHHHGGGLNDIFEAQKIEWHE

[5] = biological target: T5, Human ANGPTL4(26-161)-FLAG-His6-Avi (human, biotin on the C-terminal Avi tag (BirA) where the protein is immobilised); experiment: as above
T5 construct: also called human ANGPTL4 N-terminal coiled coil domain; hANGPTL4-CCD
T5 chain: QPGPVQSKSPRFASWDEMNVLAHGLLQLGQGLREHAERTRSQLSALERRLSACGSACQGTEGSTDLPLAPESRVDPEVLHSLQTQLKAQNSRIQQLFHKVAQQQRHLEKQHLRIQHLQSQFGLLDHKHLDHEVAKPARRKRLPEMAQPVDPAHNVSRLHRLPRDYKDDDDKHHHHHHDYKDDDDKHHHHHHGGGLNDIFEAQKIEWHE

[6] = biological target: T2, Cynomolgus monkey …; experiment: as above
[7] = biological target: T4, Human ANGPTL4(26-406)-FLAG-His6-Avi; experiment: Octet (ForteBio) kinetics; average KD of the runs
[8] = biological target: T5, Human ANGPTL4(26-161)-FLAG-His6-Avi; experiment: Octet (ForteBio) kinetics; average KD of the runs
[9] = biological target: T2, Cynomolgus monkey …; experiment: Octet (ForteBio) kinetics; average KD of the runs

koff [1]: 6.4e-06 s⁻¹ and 1.7e-05 s⁻¹
kon [1]: 270000 M⁻¹ s⁻¹ and 190000 M⁻¹ s⁻¹
Kd [2]: 0.015 nM and ≤ 0.014 nM
koff [2]: 5.4e-06 s⁻¹
kon [2]: 360000 M⁻¹ s⁻¹ and 370000 M⁻¹ s⁻¹
Kd [3]: 6.2 nM
koff [4]: 4.9e-07 s⁻¹
koff [5]: 3.1e-06 s⁻¹
koff [6]: 4.1e-06 s⁻¹
Kd [7]: 0.013 nM
Kd [8]: 0.038 nM
Kd [9]: 0.015 nM
B1: NEG276-LALA (antibody, human IgG1, kappa, L234A L235A)
heavy: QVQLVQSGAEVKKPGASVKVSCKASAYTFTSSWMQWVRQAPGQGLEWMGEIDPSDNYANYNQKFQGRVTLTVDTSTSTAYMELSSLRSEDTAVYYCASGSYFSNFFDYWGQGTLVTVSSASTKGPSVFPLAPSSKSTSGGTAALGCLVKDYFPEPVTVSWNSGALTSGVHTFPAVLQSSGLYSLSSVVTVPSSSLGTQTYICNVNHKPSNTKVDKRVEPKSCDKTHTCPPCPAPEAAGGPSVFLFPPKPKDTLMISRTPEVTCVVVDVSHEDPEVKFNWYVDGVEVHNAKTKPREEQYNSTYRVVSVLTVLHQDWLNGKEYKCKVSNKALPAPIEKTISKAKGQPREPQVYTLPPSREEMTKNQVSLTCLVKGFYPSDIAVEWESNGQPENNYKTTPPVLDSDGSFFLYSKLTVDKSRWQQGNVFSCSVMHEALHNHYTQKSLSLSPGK
light: EIVMTQSPATLSVSPGERATLSCKASQDIGSNLNWLQQKPGQAPRRLIYAVSNRGPGIPARFSGSRSGSEYTLTISSLQSEDFAVYYCLQYASSPWTFGQGTKVEIKRTVAAPSVFIFPPSDEQLKSGTASVVCLLNNFYPREAKVQWKVDNALQSGNSQESVTEQDSKDSTYSLSSTLTLSKADYEKHKVYACEVTHQGLSSPVTKSFNRGEC
